Results published in the supplement of paper PMC10567573.

B1: KCNA3 (parent)
chain: YQSGGRIRRPVNVPIDIFSEEIRF
B2: TSN (parent)
chain: AFVVYLETETLVTREAVTEILGIE

Variants of: B1
Assay: protein stability index of a GFP-peptide fusion (GPS, HEK-293T) (PSI 1-6); higher = more stable
Conditions: c terminus: a fixed tail appended
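Further: lentivirally expressed fusions sorted by FACS into six bins by GFP to DsRed ratio, PSI derived from sequencing read proportions per bin multiplied by bin number.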

Row | Variant | protein stability index
1 | YQSGGRIRRPVNVPIDIFTEEIRF [S19T] | 2.6
2 | YQSGGRIRRPVNVPIDIFNEEIRF [S19N] | 2.74
3 | YQSGGRIRRPVNVPIDIFDEEIRF [S19D] | 2.43
4 | YQSGGRIRRPVNVPIDIFFEEIRF [S19F] | 1.51
5 | YQSGGRIRRPVNVPIDIFYEEIRF [S19Y] | 2.4
6 | YQSGGRIRRPVNVPIDIFAEEIRF [S19A] | 1.83
7 | YQSGGRIRRPVNVPIDIFKEEIRF [S19K] | 1.54
8 | YQSGGRIRRPVNVPIDIFPEEIRF [S19P] | 1.73
9 | YQSGGRIRRPVNVPIDIFEEEIRF [S19E] | 1.87
10 | YQSGGRIRRPVNVPIDIFHEEIRF [S19H] | 1.49
11 | YQSGGRIRRPVNVPIDIFQEEIRF [S19Q] | 1.68
12 | YQSGGRIRRPVNVPIDIFIEEIRF [S19I] | 1.85
13 | YQSGGRIRRPVNVPIDIFCEEIRF [S19C] | 1.39
14 | YQSGGRIRRPVNVPIDIFGEEIRF [S19G] | 2.52
15 | YQSGGRIRRPVNVPIDIFSYEIRF [E20Y] | 2.34
16 | YQSGGRIRRPVNVPIDIFSFEIRF [E20F] | 2.93
17 | YQSGGRIRRPVNVPIDIFSHEIRF [E20H] | 2.04
18 | YQSGGRIRRPVNVPIDIFSREIRF [E20R] | 1.61
19 | YQSGGRIRRPVNVPIDIFSCEIRF [E20C] | 2.19
20 | YQSGGRIRRPVNVPIDIFSPEIRF [E20P] | 2.11
21 | YQSGGRIRRPVNVPIDIFSTEIRF [E20T] | 1.53

Row | Variant | protein stability index
22 | YQSGGRIRRPVNVPIDIFSMEIRF [E20M] | 1.96
23 | YQSGGRIRRPVNVPIDIFSAEIRF [E20A] | 2.06
24 | YQSGGRIRRPVNVPIDIFSDEIRF [E20D] | 2.26
25 | YQSGGRIRRPVNVPIDIFSNEIRF [E20N] | 2.52
26 | YQSGGRIRRPVNVPIDIFSGEIRF [E20G] | 1.37
27 | YQSGGRIRRPVNVPIDIFSQEIRF [E20Q] | 1.68
28 | YQSGGRIRRPVNVPIDIFSKEIRF [E20K] | 2.29
29 | YQSGGRIRRPVNVPIDIFSSEIRF [E20S] | 1.82
30 | YQSGGRIRRPVNVPIDILSEEIRF [F18L] | 2.63
31 | YQSGGRIRRPVNVPIDIVSEEIRF [F18V] | 2.41
32 | YQSGGRIRRPVNVPIDITSEEIRF [F18T] | 2.4
33 | YQSGGRIRRPVNVPIDIISEEIRF [F18I] | 1.49
34 | YQSGGRIRRPVNVPIDIMSEEIRF [F18M] | 2.35
35 | YQSGGRIRRPVNVPIDIESEEIRF [F18E] | 3.23
36 | YQSGGRIRRPVNVPIDIASEEIRF [F18A] | 2.68
37 | YQSGGRIRRPVNVPIDIRSEEIRF [F18R] | 2.11
38 | YQSGGRIRRPVNVPIDISSEEIRF [F18S] | 2.8
39 | YQSGGRIRRPVNVPIDIYSEEIRF [F18Y] | 2.2
40 | YQSGGRIRRPVNVPIDIKSEEIRF [F18K] | 1.99
41 | YQSGGRIRRPVNVPIDIGSEEIRF [F18G] | 2.49
42 | YQSGGRIRRPVNVPIDIPSEEIRF [F18P] | 2.55

Row | Variant | protein stability index
43 | YQSGGRIRRPVNVPIDICSEEIRF [F18C] | 2.36
44 | YQSGGRIRRPVNVPIDINSEEIRF [F18N] | 3.17
45 | YQSGGRIRRPVNVPIDIDSEEIRF [F18D] | 2.3
46 | YQSGGRIRRPVNVPIDIQSEEIRF [F18Q] | 1.81
47 | YQSGGRIRRPVNVPIDIHSEEIRF [F18H] | 2.29
48 | YQSGGRIRRPVNVPIVIFSEEIRF [D16V] | 1.19
49 | YQSGGRIRRPVNVPITIFSEEIRF [D16T] | 2.51
50 | YQSGGRIRRPVNVPIRIFSEEIRF [D16R] | 1.64
51 | YQSGGRIRRPVNVPILIFSEEIRF [D16L] | 1.88
52 | YQSGGRIRRPVNVPIQIFSEEIRF [D16Q] | 2.61
53 | YQSGGRIRRPVNVPINIFSEEIRF [D16N] | 2.01
54 | YQSGGRIRRPVNVPIKIFSEEIRF [D16K] | 1.8
55 | YQSGGRIRRPVNVPICIFSEEIRF [D16C] | 1.41
56 | YQSGGRIRRPVNVPIGIFSEEIRF [D16G] | 1.73
57 | YQSGGRIRRPVNVPIAIFSEEIRF [D16A] | 3.22
58 | YQSGGRIRRPVNVPIFIFSEEIRF [D16F] | 1.33
59 | YQSGGRIRRPVNVPIHIFSEEIRF [D16H] | 1.84
60 | YQSGGRIRRPVNVPISIFSEEIRF [D16S] | 2.42
61 | YQSGGRIRRPVNVPIPIFSEEIRF [D16P] | 2.34
62 | YQSGGRIRRPVNVPIYIFSEEIRF [D16Y] | 1.39
63 | YQSGGRIRRPVNVPIIIFSEEIRF [D16I] | 2.51

Row | Variant | protein stability index
64 | YQSGGRIRRPVNVPIWIFSEEIRF [D16W] | 1.87
65 | YQSGGRIRRPVNVPIMIFSEEIRF [D16M] | 1.73
66 | YQSGGRIRRPVNVPMDIFSEEIRF [I15M] | 2.13
67 | YQSGGRIRRPVNVPCDIFSEEIRF [I15C] | 2.13
68 | YQSGGRIRRPVNVPQDIFSEEIRF [I15Q] | 2.56
69 | YQSGGRIRRPVNVPSDIFSEEIRF [I15S] | 2.69
70 | YQSGGRIRRPVNVPWDIFSEEIRF [I15W] | 1.92
71 | YQSGGRIRRPVNVPLDIFSEEIRF [I15L] | 1.83
72 | YQSGGRIRRPVNVPPDIFSEEIRF [I15P] | 2.03
73 | YQSGGRIRRPVNVPKDIFSEEIRF [I15K] | 2.19
74 | YQSGGRIRRPVNVPNDIFSEEIRF [I15N] | 2.36
75 | YQSGGRIRRPVNVPTDIFSEEIRF [I15T] | 2.37
76 | YQSGGRIRRPVNVPADIFSEEIRF [I15A] | 3.48
77 | YQSGGRIRRPVNVPRDIFSEEIRF [I15R] | 2.41
78 | YQSGGRIRRPVNVPYDIFSEEIRF [I15Y] | 1.63
79 | YQSGGRIRRPVNVPDDIFSEEIRF [I15D] | 2.33
80 | YQSGGRIRRPVNVPEDIFSEEIRF [I15E] | 2.11
81 | YQSGGRIRRPVNVPFDIFSEEIRF [I15F] | 1.48
82 | YQSGGRIRRPVNVPGDIFSEEIRF [I15G] | 2.4
83 | YQSGGRIRRPVNVPHDIFSEEIRF [I15H] | 2.16

Variants of: B2
Assay: as above
Conditions: c terminus: a fixed tail appended

Row | Variant | protein stability index
84 | NFVVYLETETLVTREAVTEILGIE [A1N] | 3.19
85 | EFVVYLETETLVTREAVTEILGIE [A1E] | 3.39
86 | CFVVYLETETLVTREAVTEILGIE [A1C] | 2.64
87 | GFVVYLETETLVTREAVTEILGIE [A1G] | 3.71
88 | KFVVYLETETLVTREAVTEILGIE [A1K] | 2.54
89 | IFVVYLETETLVTREAVTEILGIE [A1I] | 3.49
90 | FFVVYLETETLVTREAVTEILGIE [A1F] | 3.77
91 | DFVVYLETETLVTREAVTEILGIE [A1D] | 1.74
92 | LFVVYLETETLVTREAVTEILGIE [A1L] | 3.38
93 | HFVVYLETETLVTREAVTEILGIE [A1H] | 2.54
94 | MFVVYLETETLVTREAVTEILGIE [A1M] | 2.61
